Assay results published in US12509503B2, “Pan-neuraminidase inhibiting antibodies” (Washington University, priority 2019, dated 2025).

What was measured:
recombinant N2 NA = type: binding, influenza A virus
[1] = system: recombinant NA, group 1 NAs (N1, N4, N5 and N8) and group 2 NAs (N2, N3, N6, N7 and N9); type: binding, influenza A virus
[2] = system: influenza A group 1 and group 2 NAs; experiment: Enzyme-linked lectin assay (ELLA) neuraminidase inhibition, influenza A NAs; type: biochemical, influenza A virus; conditions: for neuraminidase inhibition (NI) in ELLA: fetuin substrate, subtypes inhibited are named in the value
Protocol: Ninety six-well microtiter plates (Thermo Fisher) were coated with 100 μL/well fetuin (Sigma) at a concentration of 25 μg/mL in 1× coating buffer (KPL coating solution; SeraCare) at 4° C. overnight. The next day, the plates were washed three times with T-PBS and blocked in 200 μL blocking buffer (5% bovine serum albumin (BSA, Biomedicals) in PBS) at room temperature. On a separate 96-well plate virus was serially diluted 1:2 in PBS. Seventy-five μL of PBS was added to all wells and the plates incubated for 1.5 h on a shaker at room temperature. After blocking, the plates were washed three times with T-PBS, 100 μL of serially diluted virus was transferred well by well to the fetuin coated plates and the plates were incubated for 2 hours at 33° C. or 37° C. depending on the virus type. The plates were washed four times and 100 μL peanut agglutinin (PNA) conjugated to HRP at a concentration of 5 μg/mL was added to all wells. The plates were incubated in the dark for two hours, the plates washed four times and developed with 100 μL SigmaFast OPD. The reaction was stopped after 5 min with 50 μL 3M hydrochloric acid (Thermo Fisher) and the plates were read at a wavelength of 490 nm with a microtiter plate reader (Bio-Tek). The data were analyzed in Microsoft Excel and GraphPad Prism 7, and the 50% effective concentration (EC50) was calculated for each virus.
To perform neuraminidase inhibition assays, the microtiter plates were coated and blocked as described above. During the blocking of the fetuin coated plates the mAbs were diluted to a starting concentration of 30 μg/mL and serially diluted 1:2 in PBS in a separate 96-well plate. Seventy-five μL of virus diluted to 2× effective concentration 50 (EC50) was added to wells of the serially diluted mAbs and incubated for 1.5 h on a shaker. The fetuin coated plates were washed three times with T-PBS and the virus/mAb mixture was added to the plates and incubated for 2 hours at 33° C. or 37° C. The remainder of the assay was performed as described above. The data were analyzed in Microsoft Excel and GraphPad Prism 7, and the inhibitory concentration 50 (IC50) was calculated.

[3] = system: challenge viruses expressing N1, N2, N3, N5, N6, N7, N8, N9 NAs and influenza B virus NA; parameters: species or system mice; conditions: mouse, in vivo
[4] = system: virus expressing a group 1 neuraminidase (N4); parameters: species or system mice; conditions: mouse, in vivo

Row | Molecule | binding to N2 NA (recombinant N2 NA) | binding / cross-reactivity to recombinant influenza A NA subtypes in ELISA [1] | neuraminidase inhibition (NI) in ELLA [2] | protection against weight loss [3] | protection from lethality [3] | weight loss [4] | NA inhibition in ELLA ([2]; H3N2 strain A/Hong Kong/4801/2014)
1 | 1G01: human anti-NA monoclonal antibody expressed as IgG1; heavy chain variable region SEQ ID NO: 44, light chain variable region SEQ ID NO: 45 (antibody, listed as Homo sapiens, V domains shown, IgG1 constant regions) VH: EVQLVESGGRALRPGGSLRLSCAASGFKFDDYAMSWVRQVPGKGLEFVSGLNWNGDITAYTDSVKGRFTVSRDNAKNSLYLHINSPKPEDTALYYCARTSSWGDYTRGPEPKITWYFDLWGRGTLVTVSS VL: DIQLTQSPSFLSASVGDRITITCRASQGIDGYLAWYQQRPGKAPNLLIYAASLLQSGVPSRFSGSGYGTEFTLTISSLQPEDFATYYCQHLDSYPLFTFGPGTKVDIK | bound | broadest binding activity that covered all group 1 NAs (N1, N4, N5 and N8) and group 2 NAs (N2, N3, N6, N7 and N9) | inhibited the activity of all A/group 2 and group 1 NAs | solid protection against weight loss | full protection from lethality | some transient weight loss | 
2 | 1G01 Fab: antigen-binding fragment (Fab) of 1G01 used instead of the full antibody (antibody, left off: a dimerising Fc or GST) heavy: EVQLVESGGRALRPGGSLRLSCAASGFKFDDYAMSWVRQVPGKGLEFVSGLNWNGDITAYTDSVKGRFTVSRDNAKNSLYLHINSPKPEDTALYYCARTSSWGDYTRGPEPKITWYFDLWGRGTLVTVSS light: DIQLTQSPSFLSASVGDRITITCRASQGIDGYLAWYQQRPGKAPNLLIYAASLLQSGVPSRFSGSGYGTEFTLTISSLQPEDFATYYCQHLDSYPLFTFGPGTKVDIK |  |  |  |  |  |  | potent inhibition
3 | 1G04: human anti-NA monoclonal antibody expressed as IgG1; heavy chain variable region SEQ ID NO: 40, light chain variable region SEQ ID NO: 41 (antibody, listed as Homo sapiens, V domains shown, IgG1 constant regions) VH: EVQLVESGGRVVRPGGSLRLSCAASGFTFDDYGMSWVRQAPGKGLEFVSGLNWNGDITAFTDSVKGRFTISRDNAKSSLYLQMNSLRADDTAFYYCARVRTWGEYTTREEPIHSWYFDLWGRGTLVTVSS VL: DIQLTQSPSFLSASVGDRVTITCRASQDISSFLAWYQQKPGNAPKVLIYAASLLQSGVPSRFSGSGSGTDFTLTISSLQPEDFATYYCQQLNSYPLFTFGPGTKVDIK | bound | some cross-reactivity to N3 and N6 (group 2), and N1, N5 and N8 (group 1) | inhibited N2, N3 and certain N1 NAs |  |  |  | 
4 | 1E01: human anti-NA monoclonal antibody expressed as IgG1; heavy chain variable region SEQ ID NO: 42, light chain variable region SEQ ID NO: 43 (antibody, listed as Homo sapiens, V domains shown, IgG1 constant regions) VH: EVQLVESGGRVVRPGGSLRLSCAASGFTFDDYGMSWVRQPPGKGLEFVSGLNWNGDITAFTDSVKGRFTISRDNVKSSLYLQMNSLRADDTAFYYCARVRTWGDYTTGEEIINSWYFDLWGRGTLVTVSS VL: DIQLTQSPSFLSASVGDRVTITCRASQDISSYLAWYQQKPGNAPKLLIYAASLLQSGVPSRFSAFGSGTEFTLTISSLQPEDFATYYCQHLKSYPLFTFGPGTKVDIK | bound | even broader binding pattern that included group 2 NAs N3, N6, N7 and N9, group 1 NAs N1, N5 and N8 | inhibited group 2 NAs, N1 |  |  |  | 
